From the DeepSol protein solubility set

Experiment: soluble on expression in E. coli; label from the status in PepcDB or PDB records

Sequence	soluble on expression in E. coli
MEDPVFTFGLIADVQYADIEDGENYLRTRRRYYRGSADLLRDAVLQWRRERVQCVVQLGDIIDGHNRRRDASDRALDTVMAELDACSVDVHHVWGNHEFYNFSRPSLLSSRLNSAQRTGTDTGSDLIGDDIYAYEFSPAPNFRFVLLDAYDLSVIGREEESEKHTHSWRILTQHNHNLQDLNLPPVSVGLEQRFVKFNGGFSEQQLQWLDAVLTLSDHKQERVLIFSHLPVHPCAADPICLAWNHEAVLSVLRSHQSVLCFIAGHDHDGGRCTDSSGAQHITLEGVIETPPHSHAFATAYLYEDRMVMKGRGRVEDLTITYS	not soluble
MEEDSREDDFNGKIRRSLCEWLGPFEEFHDRVAKNQQTSRHGLIRSKMKPRPSPFVTLQAPPHESPSHVPVHVALQSMKNLVDERITEITHHEFADLKKGMNNVKSSATSSTDKKRKIGEDEDSQIEVKRKKESRNYIPPSTPDSGTHSTESDMIEEPNSDEVAAMLSIMKTLDTPKLSPLPKDFKVVCKEDEQPGPSSSKFPSDSSVSAASTSRESTPEPKLLGTLRIKALKPERVQKLIELAKTRGKLTDVVEVEKKVVEKVVEKQEKRVLEPLPPPPRPPSVPAVPAVPTPSRDPILGPGSGSARNSPLPPQKPANKTVQSLQGLQGSSRTMSPSPRNIRSTTPSVPSRPPSALSTHSHVETEVAAVATTSAPAEASAAVKPRFVCQWSHARLKKAQRVPFPDPSSTSTKTKGEFYHALAKDWKSKADNSKDRVTRPLNYMLSSVFFVLEAIWKADKERTTQSKMQCASIYRDTYELLGVAVFQGVRDTDDSLAVHILPRVKVIGQVMLAVMQYQMYIFRSEQAIKTMSRLDMREVSESIDIRPVSRASDSSSVHSQHLTVPTNKAVTSVAHGTPKPSPSAGSTPSGPTGAPVIPWIASIQACQNMVSMPQIVYDAYKSQLKTANGLMLASRYWEDSKTLSNIIDSGTFVKDVESIVGKSISMDMQFADLATFVLTAVGSLKAEYEEEQKQPAKPILAKVKKGLDLAIRTGTFHSDRPPPVHRPSNNTPDGKARRKQ	not soluble
MEEELPLFSGDSGKPVQATLSSLKMLDVGKWPIFSLCSEEELQLIRQACVFGSAGNEVLYTTVNDEIFVLGTNCCGCLGLGDVQSTIEPRRLDSLNGKKIACLSYGSGPHIVLATTEGEVFTWGHNAYSQLGNGTTNHGLVPCHISTNLSNKQVIEVACGSYHSLVLTSDGEVFAWGYNNSGQVGSGSTVNQPIPRRVTGCLQNKVVVTIACGQMCCMAVVDTGEVYVWGYNGNGQLGLGNSGNQPTPCRVAALQGIRVQRVACGYAHTLVLTDEGQVYAWGANSYGQLGTGNKSNQSYPTPVTVEKDRIIEIAACHSTHTSAAKTQGGHVYMWGQCRGQSVILPHLTHFSCTDDVFACFATPAVTWRLLSVEPDDHLTVAESLKREFDNPDTADLKFLVDGKYIYAHKVLLKIRCEHFRSSLEDNEDDIVEMSEFSYPVYRAFLEYLYTDSISLSPEEAVGLLDLATFYRENRLKKLCQQTIKQGICEENAIALLSAAVKYDAQDLEEFCFRFCINHLTVVTQTSGFAEMDHDLLKNFISKASRVGAFKN	not soluble
MEEIDDKSKFKVPSWAAKPPNGAHLDVQKGDALIQKLLIDDKKAYYFGRNNKQVDFAVEHASCSRVHALLLYHGLLQRFALIDMDSSHGTFLGNVRLRPLEVVFMDPGTQFHLGASTRKYSVRLKTEHHVEDDPTVAASDEQLDHQTSYNTAQNRRIPQLPISVEEARRKKRPRGNVAFLEEEEVINPEDVDPSVGRFRNLVTTAIISTNPNKRPGDPKRSEPPRKIVRPGRELMSAPLSSTFGPMALNAAPDLELYGKLLPEPGHHQYVTSTATEDEADDHHKKRYAKEAWPGRKPGAGIF	soluble
MEELASLTKTADGKVLTSVTQKRNRADAATYIGKGKVEELKALVEELEADLLIFNDELSPSQLKSLATAIEVKMIDRTQLILDILAKRARTREGKLQIELAQLQYALPRLTGQGINLSRQGGGIGARGPGETKLETDRRHIRNRIHEINTQVSTVIRHRSRYRERRKKNGVLQIALVGYTNAGKSTWFNRLTSADSYEEDLLFATLDPMTRKMVLPSGYSVLLSDTVGFIQDLPTTLIAAFRSTLEEVKEADLILHLIDSSNEDYAGHEKTVLRLLEELEADDIPMLTAYNKRDQKLPDFYRPPEGITLWSVRNLRTTLQPLKKRFSAICAKNCLEHHHHHH	not soluble
MEENSADIENRPVAAFRPAVSVPMPVLPQDGEVFVGPGGKKDAQKIGLGLSKLSSKRKDDIQMAKKYAMDISIKQILLRQQKQQQENQQRQQMYSQALSIMSRIYVGSISFEIREDMLRRAFDPFGPIKSINMSWDPATGHHKTFAFVEYEVPEAALLAQESMNGQMLGGRNLKVNSMMFQEMRLPQNMPQAQPIIDMVQKDAKKYFRVYVSSVHPDLSETDLKSVFEAFGEIVKCQLARAPTGRGHRGFGYLEFNNLTSQSEAIAGMNMFDLGGQYLRVGKCVTPPDALTYLQPASVSAIPASVSVACAAITAKVMAAEAAAGSSPKTPSESGGSRAASPAPRAQSPATPSSSLPTDIENKAVISSPKKEPEEIEVPPLPPSAPDVVKDEPMEIEEEEEYTIPEEKPKPVAIVPPPGLAIPSLVAPPGLIAPTEIGIVVPNPSFLAQQQQKIEEKIEEEEEARTERVKLSTSQRKKMKREKLNQMTFEEKMAQVLGQQKAVQNQRMADPVTFGALDDTVAWKDPSNEDQTSEDGKMLAIMGPGRGGDNVASMALALMDGGSSLMLANNAKAKEAAAALALEPKKKKKVKEGKKIQPKLNTAQALAAAAKAGEMSDALKNEVMNSEDASLASQEGLEIRGNDARHLLMTKLMRTNRSNVIVLRNMVTPQDIDEFLEGEIREECGKYGNVIDVVIANFASSGLVKIFVKYSDSMQVDRAKAALDGRFFGGNTVKAEAYDQILFDHADYTG	not soluble
MEERDRVKITDRLARPLRDLRLSVIDQCNFRCVYCMPAEVFGPNFRFLAEDQLLTVEEMALLAECFVELGVEKIRLTGGEPLLRRDLDALIERLSALPGLRDIGLTTNGVHLVKWAQRLKAAGLKRVNVSLDALDDDIFRKMNGIGVGAAPVLKGIEAALAAGLGVKVNMVVKKGWNDSQIVPMAAYFKDLGIPLRLIEFMDVGTTNGWDYSHVVTKKEMYEQINAMHPLEPVEKEYFGEVASRYRYAGTNVEVGFIASVTETFCQSCTRARISADGKLYTCLFASKGVSLKDKLRAGEGKEEIKALITTVWNRRTDRYSEERTAETAKQRPKIEMSYIGG	not soluble
MEERPSETNSNVDSSAQPSVAQLAGRFREHAAVARETPASKPTRRKPPCSLPLFPPKVELGQNGEEKSPSGASHPPKIKVKSSPLIEKLQANLAFDPAALLPGASPKSPGLKAIISPFHSPPSTPSSPGIRSHPSEAEEVPVSFDQPPEGTHLPSYNKVRTRGSIKRRPPSRRFRRSQSDCGDFRDYRAVEPSQENGAREENGDDVFPSKSKDPGSPQLNQEAMADGVEGTPRSAEKPRRRNTCNSTEKPEELVRTPEEANAGEKVGQNPDTASQGHPEVQAPSQTGSPEAENGCGSPREETAPGEHTDTGKATEGTASEERVADEDRLGQKSPDANMPEEEGVVREKAPQTSSGKAEGTTIAEPDTKQKEEAPLEPSCSPGADHAAGEITSEIQNEKAVSMDDIPIEDTRM	not soluble
MEFDPVKINTSSIDHVTILQYIDEPNDIRLTVCIIRNINNITYYINITKINPHLANRFRAWKKRIAGRDYMTNLSRDTGIQQSKLTETIRNCQKNKNIYGLYIHYNLVINVVIDWITDVIVQSILRGLVNWYIANNTYTPNTPNNTTTISELDIIKILDKYEDMYRVSKEKECGICYEVVYSKRLENDRYFGLLDSCNHIFCITCINIWHRTRRETGALDNCPICRTRFRKITMSKFYKLVN	not soluble
MEGMDPLAVLAESRLLPLLTVRGGEDLLGLARVLEEEGVGALEITLRTEKGLEALKALRKSGLLLGAGTVRSPKEAEAALEAGAAFLVSPGLLEEVAALAQARGVPYLPGVLTPTEVERALALGLSALKFFPAEPFQGVRVLRAYAEVFPEVRFLPTGGIKEEHLPHYAALPNLLAVGGSWLLQGNLEAVRAKVRAAKALLSPQAPG	soluble
MEGNHEEPQGGLEELSGRWHSVALASNKSDLIKPWGHFRVFIHSMSAKDGNLHGDILIPQDGQCEKVSLTAFKTATSNKFDLEYWGHNDLYLAEVDPKSYLILYMINQYNDDTSLVAHLMVRDLSRQQDFLPAFESVCEDIGLHKDQIVVLSDDDRCQGSRDLEHHHHHH	soluble
MEGPLTIPVLDKGFVRLVDQMGDDRAIVQAARVSYGEGTKTVREDAALIDYLMRHRHTSPFEMVVFKFHVKAPIFVARQWFRHRTASVNEISGRYSILKEEFYEPEAFRKQAKRNKQASEGALLDEEALALLRKVQQEAYGAYRALLEKGVAREMARMVLPLNLYTEFYWKQDLHNLFHFLKLRLAPEAQWEIRQYARAIAEIVKERVPLAWAAFEEHLLEGAFLSRTELRALRGLLTPEVYEKALSSLGLGGSRLKEALEKVFGPGEAL	soluble
MEIIYPPLVEEGLKYYLETTQQSLDKSTFYRSMVERGIITETGLPTQQAIENGLVKDYYEDQGLSFDDFLRIYPIFEEYDEELFQCIDGYWEIPVDMKENLASQLESGELTFEDAQQIQAYLEDR	not soluble
MEITNPILTGFNPDPSLCRQGEDYYIATSTFEWFPGVRIYHSRDLKNWSLVSTPLDRVSMLDMKGNPDSGGIWAPCLSYADGKFWLLYTDVKIVDSPWKNGRNFLVTAPSIEGPWSEPIPMGNGGFDPSLFHDDDGRKYYIYRPWGPRHHSNPHNTIVLQAFDPQTGTLSPERKTLFTGTPLCYTEGAHLYRHAGWYYLMAAEGGTSYEHAVVVLRSKNIDGPYELHPDVTMMTSWHLPENPLQKSGHGSLLQTHTGEWYMAYLTSRPLRLPGVPLLASGGRGYCPLGRETGIARIEWRDGWPYVEGGKHAQLTVKGPQVAEQPAAVPGNWRDDFDASSLDPELQTLRIPFDDTLGSLTARPGFLRLYGNDSLNSTFTQSTVARRWQHFAFRAETRMEFSPVHFQQSAGLTCYYNSKNWSYCFVDYEEGQGRTIKVIQLDHNVPSWPLHEQPIPVPEHAESVWLRVDVDTLVYRYSYSFDGETWHTVPVTYEAWKLSDDYIGGRGFFTGAFVGLHCEDISGDGCYADFDYFTYEPV	soluble
MEKADIEAIFARSRFISAMNLEILDIDHAGSRFSVRMPLQDTYERGAPGTKQFHGGALAALIDVVGDFAIGMLVGGGVPTMNLRIDYLRPAVGDYVDGVAVVRKAGKSAAVVDIDILCPAGKLVAIGRGTYVPITGLEHHHHHH	not soluble
MEKAYDFEVEAPPEVVRDYLMNPENLMKYIPHFKDLKRVDDGWELYVSWLFTIKLKVKRVFTNTDIIYLVEKSEGLIKIKSSLRFTIFPSKGGITIVRLVFFYDGPFESIVKGQADAFYRKGKEVFKTEMTKEKRIQEEQNGVKGEVSIYEMKTIFSGKINKDELEKYLEIAMVKSVNSTVVVILSDERNIIEIKFKGGELVAQKGDLDSLSSPITILIKQLEHHHHHH	soluble
MEKERYFQAETEGEQPETKAEEATAAITQLGQTNVPQMDPDTNIHCLTIVGQIEGHIQLPPQNKATKYEHVIPQIVAIEQNPKIEGLLVILNTVGGDVEAGLAIAEMLASLSKPTVSVVLGGGHSIGVPIAVSCNYSFITETATMTIHPIRLTGLVIGVPQTFEYLDKMQERVVRFVTKHSKISEEKFKELMFSKGNLTRDIGTNVVGPDAVRYGLIDEVGGVSQAMAKLRELIAMRKNGEGKMIQ	not soluble
MEKIVVIKYKDIKLKSPILIGGLPGIGNVGKIAADYIVEKLNMTKMYDIFSQYLPPQVFINDDSVVHLVRNSIYYKKMRGKHDLVILAGDFQGTTQEAQYELSYQVLQIAKEIGVSMIYTLGGYSIGKIVDKPRVLGAVTDKNLVADLEKNGVVFPKGEPGGGIVGSAGLILGLGMELFNMNGACLMGETSGYFADPKSAMEVLNVLQRQLGIKIDMSDIETRSKQIEQITGKMAEEFQNKQNKEDLGYFG	soluble
